For experiment [1], the target named is T1, cynomolgus CD3 on cynomolgus T cells (HSC-F) (cynomolgus monkey, UniProt Q95LI5 22-198; Q95LI8 22-171; Q95LI7 23-181).
T1 construct: whole, on cells; also called cyCD3+; cell surface CD3 on cynomolgus (HSC-F) T cells
The experiment is described as follows: flow cytometry on HSC-F (cyCD3+) cells, detected with PE-conjugated anti-human kappa secondary antibody; control is the secondary antibody alone. An excerpt: (§1) Flow cytometry was used to test binding of conjugates to cell surface CD3 on human (Jurkat) and cynomolgus (HSC-F) T cells or PSMA on C4-2 cells.
(A flow cytometer gives signals particle by particle.)

Experiment [2] concerns the target T2, human CD3 on human T cells (Jurkat) (human, UniProt P07766 23-207; P04234 22-171; P09693 23-182).
T2 construct: whole, on cells; also called huCD3+; cell surface CD3 on human (Jurkat) T cells
The experiment is described as follows: flow cytometry on Jurkat (huCD3+) cells, detected with PE-conjugated anti-human kappa secondary antibody; control is the secondary antibody alone.
Excerpt: as §1

In experiment [3] the target is T1, cynomolgus CD3 on cynomolgus T cells …. The experiment is described as follows: flow cytometry titration on HSC-F cells. An excerpt: (§2) Flow cytometry was used to assess for potential differential binding to cell surface CD3 on human (Jurkat) and cynomolgus T cells as a result of the "de-immunization" process. […] After several washes, samples were acquired on a BD LSRII or BD Accuri C6 and analyzed using FlowJo software.

The target in experiment [4] is T2, human CD3 on human T cells (Jurkat). The experiment is described as follows: flow cytometry titration on Jurkat cells.
Excerpt: as §2

Experiment [5] deals with T3, recombinant human CD3 delta/epsilon complex (hu.CD3 d/e-Fc) (human, UniProt P04234 22-105; P07766 23-126).
T3 construct: not shown: Fc portion
The experiment is described as follows: Octet (BLI), hu.CD3de-Fc captured on Fc sensor, conjugate as analyte; unit inferred, M implied. The method, then: (§3) Analytes were serially diluted 1.2× from 6 μg/mL to 1 μg/mL in the 1×PBS. 100 mM glycine (pH 2.87) regeneration solution, and 1×PBS for baseline stabilization was also prepared. Biosensor, ligand and analytes pair is following: (1) CH-1-antibodies-recombinant human or cynomolgus monkey CD3 delta/epsilon complex, (2) Fc-recombinant human or cynomolgus monkey CD3 delta/epsilon complex-antibodies (3) CH-1-antibodies-recombinant human or cynomolgus monkey PSMA; and (4) Ni-NTA-recombinant human or cynomolgus monkey PSMA-antibodies. Prior to the binding measurements, the sensor tips were pre-hydrated in 1×PBS for 30 min, followed by 1 cycles of pre-conditioning with 60-sec dips in glycine (pH 2.87). The sensor tips were then transferred to the ligand-containing wells for a 180-sec loading step. After a 120-sec baseline dip in 1×PBS, the binding kinetics were measured by dipping the ligand-coated sensors into the wells containing corresponding analyte at varying concentrations. The binding interactions were monitored over a 180-sec association period and followed by a 7.5 to 15-min dissociation period in new wells containing fresh 1×PBS.
(Biolayer interferometry detects binding as a change in optical thickness at a sensor tip.)

In experiment [6] the target is T4, recombinant cynomolgus monkey CD3 delta/epsilon complex (cy.CD3 d/e-Fc) (cynomolgus monkey, UniProt Q95LI8 22-105; Q95LI5 22-117).
T4 construct: also called cynoCD3; not shown: Fc portion
The experiment is described as follows: Octet (BLI), cy.CD3 d/e-Fc captured on Fc sensor, conjugate as analyte; unit inferred, M implied. The procedure:
as §3

Experiment [7] concerns the target T4, recombinant cynomolgus monkey CD3 …. The experiment is described as follows: Octet (BLI), conjugate captured on CH1 sensor, cy.CD3 d/e-Fc as analyte; unit inferred, M implied. The procedure: as §3
Experiment [8] addresses T3, recombinant human CD3 delta/epsilon …. The experiment is described as follows: Octet (BLI), conjugate captured on CH1 sensor, hu.CD3 d/e-Fc as analyte; unit inferred, M implied. The procedure:
as §3

Numbering of substitutions follows the chain as printed. Names may count otherwise.

T2 sequence (P07766 23-207, chain 1 of 3): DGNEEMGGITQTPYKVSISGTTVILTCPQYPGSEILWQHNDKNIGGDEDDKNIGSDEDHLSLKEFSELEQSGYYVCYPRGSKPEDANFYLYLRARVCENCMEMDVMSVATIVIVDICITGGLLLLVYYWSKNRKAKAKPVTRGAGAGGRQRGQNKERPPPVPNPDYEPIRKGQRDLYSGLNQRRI
T2 sequence (P04234 22-171, chain 2 of 3): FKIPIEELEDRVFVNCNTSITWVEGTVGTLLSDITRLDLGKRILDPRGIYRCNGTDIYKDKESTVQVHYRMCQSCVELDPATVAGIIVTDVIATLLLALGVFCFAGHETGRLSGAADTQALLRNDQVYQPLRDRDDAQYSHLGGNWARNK
T2 sequence (P09693 23-182, chain 3 of 3): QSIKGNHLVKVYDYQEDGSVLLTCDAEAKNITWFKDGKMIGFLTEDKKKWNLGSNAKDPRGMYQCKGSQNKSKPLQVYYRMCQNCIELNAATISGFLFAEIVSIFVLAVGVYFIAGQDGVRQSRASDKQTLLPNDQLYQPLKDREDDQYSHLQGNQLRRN
T3 sequence (P04234 22-105, stated change not applied, chain 1 of 2): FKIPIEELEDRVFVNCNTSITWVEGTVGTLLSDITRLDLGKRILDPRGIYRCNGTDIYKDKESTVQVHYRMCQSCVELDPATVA
T3 sequence (P07766 23-126, stated change not applied, chain 2 of 2): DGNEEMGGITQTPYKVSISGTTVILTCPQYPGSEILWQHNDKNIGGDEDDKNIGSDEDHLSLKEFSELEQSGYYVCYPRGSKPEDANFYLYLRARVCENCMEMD
T1 sequence (Q95LI5 22-198, chain 1 of 3): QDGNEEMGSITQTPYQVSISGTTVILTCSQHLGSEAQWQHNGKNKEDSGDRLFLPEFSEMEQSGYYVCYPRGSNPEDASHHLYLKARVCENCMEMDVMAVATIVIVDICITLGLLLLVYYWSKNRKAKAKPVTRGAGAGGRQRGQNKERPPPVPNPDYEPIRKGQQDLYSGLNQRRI
T1 sequence (Q95LI8 22-171, chain 2 of 3): as the sequence (P04234 22-171, chain 2 of 3) above, with I5V, N15K, I20V, S32T, D33N, I34N, T64A, S74N, V83L, H141R counted along it
T1 sequence (Q95LI7 23-181, chain 3 of 3): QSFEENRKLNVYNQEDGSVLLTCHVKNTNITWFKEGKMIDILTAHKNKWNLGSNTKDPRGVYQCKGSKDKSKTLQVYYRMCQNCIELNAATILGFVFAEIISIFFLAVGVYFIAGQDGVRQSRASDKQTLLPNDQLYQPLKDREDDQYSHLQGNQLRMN
T4 sequence (Q95LI8 22-105, stated change not applied, chain 1 of 2): as the sequence (P04234 22-105, stated change not applied, chain 1 of 2) above, with I5V, N15K, I20V, S32T, D33N, I34N, T64A, S74N, V83L counted along it
T4 sequence (Q95LI5 22-117, stated change not applied, chain 2 of 2): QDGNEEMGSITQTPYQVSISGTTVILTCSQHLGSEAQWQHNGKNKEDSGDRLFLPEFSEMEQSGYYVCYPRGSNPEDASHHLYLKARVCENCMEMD

B1: UCHT-1 (SEQ ID NOS: 84, 85) anti-CD3 Fab (Fab, V domains shown)
VH: EVQLVESGGGLVQPGGSLRLSCAASGYSFTGYTMNWVRQAPGKGLEWVALINPYKGVSTYNQKFKDRFTISVDKSKNTAYLQMNSLRAEDTAVYYCARSGYYGDSDWYFDVWGQGTLVTVSS
VL: DIQMTQSPSSLSASVGDRVTITCRASQDIRNYLNWYQQKPGKAPKLLIYYTSRLESGVPSRFSGSGSGTDYTLTISSLQPEDFATYYCQQGNTLPWTFGQGTKVEIKR
notes: The unconjugated UCHT-1 that was tested may carry pAcF residues; also called clone UCHT-1
With B1, the results for the binding result in experiment [1] and in experiment [2] were “no binding” and “binds”, respectively.

B2: UCHT-1-p-TriA (2×DUPA) (Fab, V domains shown)
VH: B1 VH
VL: B1 VL
modifications: one pAcF conjugated to p-TriA (DUPA-linker); position in UCHT-1 not stated
For the molecule B2, the binding result in experiment [1] is on record as “no binding”.

B3: huL5H2 (SEQ ID NOS: 40, 42), pAcF double mutant Fab, unconjugated (Fab, V domains shown)
VH: EVQLVESGGGLVQPGGSLKLSCAASGFTFNTYAMNWVRQASGKGLEWVARIRSKYNNYATYYADSVKDRFTISRDDSKNTLYLQMNSLKTEDTAVYYCVRHGNFGNSYVSWFAYWGQGTLVTVSS
VL: QAVVTQEPSLTVSPGGTVTLTCRSSTGAVTTSNYANWVQQKPDHLFRGLIGGTNKRAPGTPARFSGSLLGDKAALTISGAQPEDEAEYYCALWYSNLWVFGGGTKLTVLK
modifications: p-acetylphenylalanine (pAcF) in place of S205 (S205TAG); p-acetylphenylalanine (pAcF) in place of K141 (K141TAG)
notes: Expressed in E. coli with an orthogonal tRNA/synthetase; also called VL5 kappa 205TAG + H2 141TAG
By IC50 is commonly meant the concentration at which inhibition is half-maximal. Consider B3, for which the IC50 in experiment [3] worked out at 3.8 nM; in experiment [4] it was 5.9 nM.

B4: huL5H2_DI-1×DUPA (SEQ ID NOS: 39, 44) (Fab, V domains shown)
VH: B3 VH with K19R, S41P, K89R, T90A
VL: B3 VL
modifications: pAcF at position 141 conjugated by oxime to a DUPA-linker
notes: De-immunized Fab with a single DUPA on the heavy chain; also called L5H2-DI-1X-DUPA; L5H2_DI-1xDUPA
What is called Kd is the free concentration of one partner at which half of the binding sites on the other are occupied at equilibrium, for simple one-to-one binding. For B4, the Kd in experiment [5] is 21.2 nM; in experiment [6], 11.3 nM; in experiment [7], 3.29 nM; in experiment [8] it was 4.83 nM.

B5: huL5H2_DI-2×DUPA (SEQ ID NOS: 40, 44) (Fab, V domains shown)
VH: B3 VH with K19R, S41P, K89R, T90A
VL: B3 VL
modifications: pAcF at position 205 conjugated by oxime to p-TriA (DUPA-linker); pAcF at position 141 conjugated by oxime to p-TriA (DUPA-linker)
notes: De-immunized Fab with one DUPA on the heavy chain and one on the light chain; also called L5H2-DI-2X-DUPA; L5H2_DI-2xDUPA
On to B5, for which the Kd stood at 11 nM in experiment [5] and 5.13 nM in experiment [8].

B6: DI-huL5H2 (SEQ ID NOS: 40, 44), de-immunized pAcF mutant Fab, unconjugated (Fab, V domains shown)
VH: B3 VH with K19R, S41P, K89R, T90A
VL: B3 VL
modifications: p-acetylphenylalanine (pAcF) at light chain position 205 (205TAG); p-acetylphenylalanine (pAcF) at heavy chain position 141 (141TAG)
notes: The heavy chain carries the de-immunizing mutations K19R, S41P, K89R and T90A relative to huL5H2; also called huL5H2_DI
On to B6, for which the IC50 in experiment [3] stood at 3.4 nM; in experiment [4], 4.6 nM.

The record behind these values is patent US12252534 (Scripps Research, dated 2025).
